# Measurements as given in the RNAGym collection of RNA variant scans (doi:10.1093/molbev/msab373).
# B1: Azoarcus group I ribozyme (parent)
# chain: GUGCCUUGCGCCGGGAAACCACGCAAGGGAUGGUGUCAAAUUCGGCGAAACCUAAGCGCCCGCCCGGGCGUAUGGCAACGCCGAGCCAAGCUUCGGCGCCUGCGCCGAUGAAGGUGUAGAGACUAGACGGCACCCACCUAAGGCAAACGCUAUGGUGAAGGCAUAGUCCAGGGAGUGGCGAAAGUCACACAAACCGG
# Variants of: B1
# Assay: reverse-splicing fitness (ratio to wild type); higher = more active; in vitro selection; Mg2+ level not given
# Method in brief: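 An in vitro group I ribozyme library with randomized positions was T7-transcribed and gel-purified. In triplicate, 10 pmol RNA in EPPS pH 7.5 was reacted with 50 pmoles of a 30-nt RNA substrate for 1 h at 37 °C across several added MgCl2 levels (1–48 mM), then stopped with EDTA. Products were reverse transcribed from a substrate-complementary primer, PCR-amplified and sequenced (HiSeq 4000). Fitness is a variant's read proportion after selection over that before, normalised to wild type.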
row,Variant,reverse-splicing fitness
1,GUGCCUUGCGCCGGGAAACCACGCAAGGGAUGGUGUCAAAUUCGGCGAAACCUAAGCGCCCGCCCGGGCGUAUGGCAACGCGGAGCCAAGCUUCGGCGCCUGCGCCGAUGCAGGUGUAGUGACUAGACGGCACCCACCUAAGGCUAACGUUAUGGUGAAGGCAUAGUCUAGGGAGCGGCGAAAGUCACACAAACCGG,0.00311
2,GUGCCUUGCGCCGGGAAACCACGCAAGGGAUGGUGUCAAAUUCGGCGAAACCUAAGCGCCCGCCCGGGCGUAUGGCAACGCGGAGCCAAGCUUCGGCGCCUGCGCCGAUGCAGGUGUAGUGACUAGACGGCACCCACCUAAGGCUAACGUUAUGGUGAAGGCAUAGUCUAGGGAGUGGCGAAAGUCACACAAACCGG,0.00397
3,GUGCCUUGCGCCGGGAAACCACGCAAGGGAUGGUGUCAAAUUCGGCGAAACCUAAGCGCCCGCCCGGGCGUAUGGCAACGCGGAGCCAAGCUUCGGCGCCUGCGCCGAUGCAGGUGUAGUGACUAGACGGCACCCACCUAAGGCAAACGAUAUGGUGAAGGCAUAGUCAAGGGAGGGGCGAAAGUCACACAAACCGG,0.00289
4,GUGCCUUGCGCCGGGAAACCACGCAAGGGAUGGUGUCAAAUUCGGCGAAACCUAAGCGCCCGCCCGGGCGUAUGGCAACGCGGAGCCAAGCUUCGGCGCCUGCGCCGAUGCAGGUGUAGUGACUAGACGGCACCCACCUAAGGCAAACGAUAUGGUGAAGGCAUAGUCAAGGGAGCGGCGAAAGUCACACAAACCGG,0.00453
5,GUGCCUUGCGCCGGGAAACCACGCAAGGGAUGGUGUCAAAUUCGGCGAAACCUAAGCGCCCGCCCGGGCGUAUGGCAACGCGGAGCCAAGCUUCGGCGCCUGCGCCGAUGCAGGUGUAGUGACUAGACGGCACCCACCUAAGGCAAACGAUAUGGUGAAGGCAUAGUCAAGGGAGAGGCGAAAGUCACACAAACCGG,0.00668
6,GUGCCUUGCGCCGGGAAACCACGCAAGGGAUGGUGUCAAAUUCGGCGAAACCUAAGCGCCCGCCCGGGCGUAUGGCAACGCGGAGCCAAGCUUCGGCGCCUGCGCCGAUGCAGGUGUAGUGACUAGACGGCACCCACCUAAGGCAAACGAUAUGGUGAAGGCAUAGUCCAGGGAGUGGCGAAAGUCACACAAACCGG,0.00807
7,GUGCCUUGCGCCGGGAAACCACGCAAGGGAUGGUGUCAAAUUCGGCGAAACCUAAGCGCCCGCCCGGGCGUAUGGCAACGCGGAGCCAAGCUUCGGCGCCUGCGCCGAUGCAGGUGUAGUGACUAGACGGCACCCACCUAAGGCUAACGCUAUGGUGAAGGCAUAGUCGAGGGAGUGGCGAAAGUCACACAAACCGG,0.00373
8,GUGCCUUGCGCCGGGAAACCACGCAAGGGAUGGUGUCAAAUUCGGCGAAACCUAAGCGCCCGCCCGGGCGUAUGGCAACGCGGAGCCAAGCUUCGGCGCCUGCGCCGAUGCAGGUGUAGUGACUAGACGGCACCCACCUAAGGCUAACGCUAUGGUGAAGGCAUAGUCAAGGGAGUGGCGAAAGUCACACAAACCGG,0.00231
9,GUGCCUUGCGCCGGGAAACCACGCAAGGGAUGGUGUCAAAUUCGGCGAAACCUAAGCGCCCGCCCGGGCGUAUGGCAACGCGGAGCCAAGCUUCGGCGCCUGCGCCGAUGCAGGUGUAGUGACUAGACGGCACCCACCUAAGGCUAACGCUAUGGUGAAGGCAUAGUCUAGGGAGUGGCGAAAGUCACACAAACCGG,0.00412
10,GUGCCUUGCGCCGGGAAACCACGCAAGGGAUGGUGUCAAAUUCGGCGAAACCUAAGCGCCCGCCCGGGCGUAUGGCAACGCGGAGCCAAGCUUCGGCGCCUGCGCCGAUGCAGGUGUAGUGACUAGACGGCACCCACCUAAGGCUAACGUUAUGGUGAAGGCAUAGUCCAGGGAGAGGCGAAAGUCACACAAACCGG,0.00941
11,GUGCCUUGCGCCGGGAAACCACGCAAGGGAUGGUGUCAAAUUCGGCGAAACCUAAGCGCCCGCCCGGGCGUAUGGCAACGCGGAGCCAAGCUUCGGCGCCUGCGCCGAUGCAGGUGUAGUGACUAGACGGCACCCACCUAAGGCUAACGUUAUGGUGAAGGCAUAGUCCAGGGAGCGGCGAAAGUCACACAAACCGG,0.013
12,GUGCCUUGCGCCGGGAAACCACGCAAGGGAUGGUGUCAAAUUCGGCGAAACCUAAGCGCCCGCCCGGGCGUAUGGCAACGCGGAGCCAAGCUUCGGCGCCUGCGCCGAUGCAGGUGUAGUGACUAGACGGCACCCACCUAAGGCUAACGUUAUGGUGAAGGCAUAGUCCAGGGAGGGGCGAAAGUCACACAAACCGG,0.00386
13,GUGCCUUGCGCCGGGAAACCACGCAAGGGAUGGUGUCAAAUUCGGCGAAACCUAAGCGCCCGCCCGGGCGUAUGGCAACGCGGAGCCAAGCUUCGGCGCCUGCGCCGAUGCAGGUGUAGUGACUAGACGGCACCCACCUAAGGCUAACGCUAUGGUGAAGGCAUAGUCGAGGGAGAGGCGAAAGUCACACAAACCGG,0.00269
14,GUGCCUUGCGCCGGGAAACCACGCAAGGGAUGGUGUCAAAUUCGGCGAAACCUAAGCGCCCGCCCGGGCGUAUGGCAACGCGGAGCCAAGCUUCGGCGCCUGCGCCGAUGCAGGUGUAGUGACUAGACGGCACCCACCUAAGGCUAACGCUAUGGUGAAGGCAUAGUCGAGGGAGGGGCGAAAGUCACACAAACCGG,0.00162
15,GUGCCUUGCGCCGGGAAACCACGCAAGGGAUGGUGUCAAAUUCGGCGAAACCUAAGCGCCCGCCCGGGCGUAUGGCAACGCGGAGCCAAGCUUCGGCGCCUGCGCCGAUGCAGGUGUAGUGACUAGACGGCACCCACCUAAGGCUAACGCUAUGGUGAAGGCAUAGUCGAGGGAGCGGCGAAAGUCACACAAACCGG,0.00239
